Experiment in all cases: ELISA, biotinylated antigen on streptavidin plate
(An ELISA detects its analyte on a solid surface through an enzyme-linked reagent.)

In one assay the target is T1, CD73-ND-Y135A (human, UniProt P21589 27-317).
T1 construct: Alanine mutant of CD73-ND
T1 sequence: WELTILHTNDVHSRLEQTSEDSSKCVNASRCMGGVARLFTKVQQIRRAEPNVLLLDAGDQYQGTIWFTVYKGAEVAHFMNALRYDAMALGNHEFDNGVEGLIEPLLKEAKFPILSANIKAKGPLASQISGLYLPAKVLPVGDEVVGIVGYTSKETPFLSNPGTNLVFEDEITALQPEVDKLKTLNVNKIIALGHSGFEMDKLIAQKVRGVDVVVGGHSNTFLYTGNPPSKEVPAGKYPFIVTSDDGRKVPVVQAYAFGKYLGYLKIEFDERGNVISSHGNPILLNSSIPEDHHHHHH
The method, then: (§1) The ELISA plates were coated with SA protein diluted to 1.5 μg/mL in coating buffer (50 mM carbonate coating buffer, pH 9.6) and incubated overnight at 4° C. The supernatant was discarded, and the plates were washed three times with PBST. Then, 5% skimmed milk powder prepared with PBS was added for blocking and the plates were incubated for 2 h at 37° C. After washing the plates once with PBST, CD73-biotin protein (prepared by biotinylating CD73-His protein according to the EZ-Link NHS-Biotin Reagent instructions) was diluted to 0.5 μg/mL and added at 100 μL/well for incubation at room temperature for 1 h. The plates were washed three times with PBST, and the prepared murine-derived monoclonal antibodies against human CD73 were serially diluted with 1% BSA buffer prepared with PBST and added to the ELISA plates at 100 μl/well. The plates were incubated at 37° C. for 1 h. After washing the plates three times with PBST, HRP-labeled goat anti-mouse IgG secondary antibody was added and the plates were incubated for 30 min at 37° C. After washing the plates three times with PBST, the residual droplets were patted dry on absorbent paper as much as possible. Then, 100 μl of TMB color developing solution was added to each well, and the plates were incubated in the dark at room temperature for 5 min for color development. Subsequently, 50 μl of 2M H₂SO₄ stop solution was added to each well to terminate the substrate reaction. The OD values were read at 450 nm using a multimode microplate reader to analyze the binding ability of the tested antibodies to the target antigen human CD73-His.
(§2) Referring to the experimental method in Example 3, the affinity of 48A11-HuV33 for various mutant proteins of CD73-ND was determined. The SA protein was diluted to 1 μg/mL for coating the ELISA plates, and the biotinylated CD73 protein (CD73-biotin) was used at a concentration of 0.1 μg/mL.

A further assay has as its target T2, CD73-ND-L138A (human, UniProt P21589 27-317).
T2 construct: Alanine mutant of CD73-ND
T2 sequence: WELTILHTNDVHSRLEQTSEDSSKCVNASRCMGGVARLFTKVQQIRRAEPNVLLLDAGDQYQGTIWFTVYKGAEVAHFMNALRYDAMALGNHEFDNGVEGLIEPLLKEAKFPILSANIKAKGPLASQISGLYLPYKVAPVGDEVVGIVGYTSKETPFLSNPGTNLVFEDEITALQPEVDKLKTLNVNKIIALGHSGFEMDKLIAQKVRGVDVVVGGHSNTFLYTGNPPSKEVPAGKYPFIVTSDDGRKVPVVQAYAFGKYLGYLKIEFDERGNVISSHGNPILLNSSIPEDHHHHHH
Here is the method:
as §1, §2

The target in another assay is T3, CD73-ND-his (human, UniProt P21589 27-317).
T3 construct: Biotinylated and captured on streptavidin in the ELISA
T3 sequence: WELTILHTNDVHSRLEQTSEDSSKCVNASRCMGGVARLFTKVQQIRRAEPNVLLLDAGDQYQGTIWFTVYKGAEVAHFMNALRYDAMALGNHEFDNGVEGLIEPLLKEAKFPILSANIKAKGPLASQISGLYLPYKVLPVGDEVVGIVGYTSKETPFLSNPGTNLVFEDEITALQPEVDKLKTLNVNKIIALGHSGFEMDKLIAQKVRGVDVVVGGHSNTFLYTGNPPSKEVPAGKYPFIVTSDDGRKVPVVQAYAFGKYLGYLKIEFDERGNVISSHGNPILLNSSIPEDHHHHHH
Here is the method:
as §1, §2

A further assay has as its target T4, CD73-ND-K136A (human, UniProt P21589 27-317).
T4 construct: Alanine mutant of CD73-ND
T4 sequence: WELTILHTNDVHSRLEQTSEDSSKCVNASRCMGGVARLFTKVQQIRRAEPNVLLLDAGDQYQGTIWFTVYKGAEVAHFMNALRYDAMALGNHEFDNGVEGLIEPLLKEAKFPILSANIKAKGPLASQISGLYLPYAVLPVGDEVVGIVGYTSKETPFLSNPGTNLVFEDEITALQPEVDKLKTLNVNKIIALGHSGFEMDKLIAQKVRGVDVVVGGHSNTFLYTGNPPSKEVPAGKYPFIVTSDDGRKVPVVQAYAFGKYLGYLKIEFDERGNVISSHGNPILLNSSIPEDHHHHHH
The method, then: as §1, §2

For another assay, the target named is T5, CD73-ND-L133A (human, UniProt P21589 27-317).
T5 construct: Alanine mutant of CD73-ND
T5 sequence: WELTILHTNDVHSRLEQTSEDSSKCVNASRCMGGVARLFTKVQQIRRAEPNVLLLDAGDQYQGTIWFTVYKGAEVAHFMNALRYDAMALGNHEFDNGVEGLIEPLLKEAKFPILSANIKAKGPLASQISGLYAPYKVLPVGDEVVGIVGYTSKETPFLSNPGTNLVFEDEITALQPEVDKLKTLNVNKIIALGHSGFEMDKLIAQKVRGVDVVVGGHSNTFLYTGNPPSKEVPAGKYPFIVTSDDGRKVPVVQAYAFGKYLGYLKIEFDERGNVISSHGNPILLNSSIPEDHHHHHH
The method, then:
as §1, §2

The target of the next assay is T6, CD73-ND-Y132A (human, UniProt P21589 27-317).
T6 construct: Alanine mutant of CD73-ND
T6 sequence: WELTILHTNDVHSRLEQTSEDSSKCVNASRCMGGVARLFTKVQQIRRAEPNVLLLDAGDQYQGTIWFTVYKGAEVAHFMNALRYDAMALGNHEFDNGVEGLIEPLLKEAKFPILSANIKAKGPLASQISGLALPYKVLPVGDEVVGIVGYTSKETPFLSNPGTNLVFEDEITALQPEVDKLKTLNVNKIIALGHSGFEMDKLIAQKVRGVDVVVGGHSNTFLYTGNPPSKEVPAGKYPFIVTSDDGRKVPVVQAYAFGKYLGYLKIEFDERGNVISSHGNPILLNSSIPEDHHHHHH
The method, then:
as §1, §2

This is an account of results in patent US20250066499A1 (SUNSHINE GUOJIAN PHARMACEUTICAL SHANGHAI, published 2025).

The EC50 is the midpoint of the concentration-response curve.

B1: 48A11-HuV33 (antibody, human IgG4, V domains shown)
VH: QVQLVQSGAEVKKPGASVKVSCKASGYTFTSYWMHWVRQAPGQGLEWIGEINPSIGRTNYNEKFKSRVTLTRDTSTSTAYMELSSLRSEDTAVYYCARRVYGTMDYWGQGTLVTVSS
VL: DIQMTQSPSSLSASVGDRVTITCKASQDINSYLSWFQQKPGKSPKLLIYRANIWVDGVPSRFSGSGSGQDYTFTISSLQPEDIATYYCLQYDELYTFGQGTKVEIK
notes: Humanized
Consider B1, for which the concentration for a half-maximal effect (EC50) with CD73-ND-Y135A was 0.165 nM; in the assay with CD73-ND-L138A, 0.182 nM; with CD73-ND-his it was 0.152 nM; with CD73-ND-K136A it was 0.145 nM; in the assay with CD73-ND-L133A, 25.8 nM; with CD73-ND-Y132A, 10.5 nM.
